Reference: the Human Domainome abundance scans (Beltran et al. 2025)

B1: Gamma-crystallin D, residues 90 to 170; numbered along this chain, P07320 (parent)
chain: IRLYEREDYRGQMIEFTEDCSCLQDRFRFNEIHSLNVLEGSWVLYELSNYRGRQYLLMPGDYRRYQDWGATNARVGSLRRV

Variants of: B1
Experiment: abundance fitness (aPCA) (normalised: wild type 0, dead -1); higher = more abundant; growth selection in yeast, the domain comes from the species named
Settings: Homo sapiens

Abundance fitness: each site, then its substitutions
Q66: H 0.108; K 0.269; M -0.048; N -0.074; P -0.016; R -0.06; S 0.018; T -0.073; V -0.038; W 0.018
D67: A -0.101; C -0.148; E 0.049; F -0.062; H -0.034; I -0.155; L -0.084; M 0.047; P -0.19; Q -0.08; R -0.208; S -0.005; V -0.043; W -0.064; Y -0.125
W68: A 0.043; D 0.062; F 0.194; I 0.116; K 0.16; L 0.164; M 0.15; N -0.117; P -0.067; Q -0.355; R 0.093; T 0.149; V 0.087; Y -0.163
G69: A 0.038; C 0.084; D -0.105; E 0.193; F -0.008; I -0.057; L 0.101; M 0.24; N -0.011; P -0.164; Q 0.082; R 0.141; S -0.019; T 0.016; V 0.105; W 0.045; Y 0.037
A70: C 0.074; D 0.18; E 0.165; F 0.048; G -0.047; H 0.045; I 0.024; L 0.045; M 0.109; N 0.136; P 0.047; Q -0.032; R 0.095; S -0.025; V 0.044; W 0.032; Y -0.033
T71: A 0.029; C 0.008; F -0.044; G -0.014; H 0.05; I 0.043; K -0.003; L 0.04; M -0.125; N 0.054; P -0.049; V -0.103; W 0.001; Y -0.201
N72: A -0.08; C -0.078; D -0.016; F 0.118; G -0.001; H -0.083; I 0.21; K -0.065; L 0.149; M 0.131; P 0.03; Q 0.03; R 0.026; S 0.051; V 0.065; W 0.233; Y 0.173
A73: C 0.005; D 0.104; E -0.012; F -0.173; G 0.004; H 0.151; L 0.067; M 0.156; N 0.05; P -0.175; Q 0.09; R 0.121; S -0.023; T 0.126; V 0.066; W 0.123; Y 0.003
R74: A -0.015; C 0.012; D 0.018; E 0.132; F -0.023; G -0.011; K -0.134; L -0.002; M -0.224; N 0.098; P 0.005; Q -0.02; S -0.011; V 0.028; W -0.029; Y -0.092
V75: A -0.017; C -0.065; D -0.988; E -1.04; F -0.037; G -0.024; H -0.742; I -0.201; K -0.683; M -0.024; N -0.205; P -0.011; Q -0.145; R -0.863; T -0.206; W -0.131; Y -0.001
G76: A 0.011; C -0.287; D -0.068; E 0.008; H 0.11; K -0.112; M 0.111; N -0.125; R 0.024; S -0.027; T -0.109; W -0.441; Y -0.221
